From patent US9266964
Changes are numbered by the printed parent chain.

B1: M197-A01 (Fab, V domains shown)
VH: EVQLLESGGGLVQPGGSLRLSCAASGFTFSIYDMIWVRQAPGKGLEWVSSIYPSGGNTSYADSVKGRFTISRDNSKNTLYLQMNSLRAEDTAVYYCAYRRTGIPRRDAFDIWGQGTMVTVSS
VL: DIQMTQSPSTLSASVGDRVTITCRASQSISSWLAWYQQKPGKAPNLLIYKASTLESGVPSRFSGSGSGTEFTLTISSLQPDDFATYYCQQYNTYWTFGQGTKVEIK
B2: M202-F06 (Fab, V domains shown)
VH: B1 VH with I31H, D33I, I35M, S50G, P53S, N57I, S59V, I103V, R106W
VL: B1 VL
B3: M202-A01 (Fab, V domains shown)
VH: B1 VH with I31H, D33I, I35M, S50G, P53S, N57I, S59V, T101I, I103V
VL: B1 VL
B4: M198-H08 (Fab, V domains shown)
VH: B1 VH with I35Y, Y52G, N57P, S59A
VL: B1 VL
B5: M200-E11 (Fab, V domains shown)
VH: B1 VH with I31H, D33I, I35M, S50G, P53S, N57I, S59V, I103V, I111N
VL: B1 VL
B6: M197-A08 (Fab, V domains shown)
VH: B1 VH with D33S, I35Q, Y52G, P53S, N57K, S59L
VL: B1 VL
B7: M195-B02 (Fab, V domains shown)
VH: B1 VH with I31P, D33L, I35W, S50Y, Y52G, N57P, S59H
VL: B1 VL
B8: M202-H05 (Fab, V domains shown)
VH: B1 VH with I31H, D33I, I35M, S50G, P53S, N57I, S59V, Y98F, I103V, A108V
VL: B1 VL
B9: M195-D12 (Fab, V domains shown)
VH: B1 VH with D33G, I35F, S50G, Y52G, N57P, S59K
VL: B1 VL
B10: M202-G03 (Fab, V domains shown)
VH: EVQLLESGGGLVQPGGSLRLSCAASGFTFSHYIMMWVRQAPGKGLEWVSGIYSSGGITVYADSVKGRFTISRDNSKNTLYLQMNSLRAEDTAVYYCAFRRTGVPRRDSFEIWGQGTMVTVSS
VL: B1 VL
B11: M198-A02 (Fab, V domains shown)
VH: B1 VH with I31R, D33S, Y52W, P53S, N57A, S59E
VL: B1 VL
B12: M195-C12 (Fab, V domains shown)
VH: EVQLLESGGGLVQPGGSLRLSCAASGFTFSMYQMFWVRQAPGKGLEWVSSISPGGGTQYADSVKGRFTISRDNSKNTLYLQMNSLRAEDTAVYYCAYRRTGIPRRDAFDIWGQGTMVTVSS
VL: B1 VL
B13: M198-E09 (Fab, V domains shown)
VH: B1 VH with I35N, N57R, S59R
VL: B1 VL
B14: M197-H10 (Fab, V domains shown)
VH: B1 VH with I31S, D33N, I35H, Y52V, N57K, S59N
VL: B1 VL
B15: M197-E12 (Fab, V domains shown)
VH: B1 VH with I31T, D33T, I35R, N57K, S59Q
VL: B1 VL
B16: M202-B04 (Fab, V domains shown)
VH: B10 VH with F98Y, T101S, S108D, E110D
VL: B1 VL
B17: M198-H02 (Fab, V domains shown)
VH: B12 VH with M31P, Q33N, F35Y, S50W, S52V, G56V, Q58K
VL: B1 VL
B18: M198-C05 (Fab, V domains shown)
VH: B1 VH with I31R, D33K, I35Y, S50V, Y52G, N57A, S59F
VL: B1 VL
B19: M198-B12 (Fab, V domains shown)
VH: B1 VH with I31K, D33S, I35A, S50G, N57R, S59L
VL: B1 VL
B20: M198-G07 (Fab, V domains shown)
VH: B1 VH with I35T, N57Q, S59I
VL: B1 VL
B21: M197-F01 (Fab, V domains shown)
VH: B1 VH with D33H, I35Y, Y52G, N57P, S59G
VL: B1 VL
B22: M198-F08 (Fab, V domains shown)
VH: B1 VH with I31V, D33S, I35W, Y52S, P53S, N57M, S59E
VL: B1 VL
B23: M197-H11 (Fab, V domains shown)
VH: B1 VH with D33N, N57W, S59T
VL: B1 VL
B24: M202-E06 (Fab, V domains shown)
VH: B10 VH with F98Y, T101R, S108D, E110D
VL: B1 VL
B25: M198-A07 (Fab, V domains shown)
VH: B1 VH with I31R, D33Q, I35H, S50W, Y52S, N57I, S59G
VL: B1 VL
B26: M198-C10 (Fab, V domains shown)
VH: EVQLLESGGGLVQPGGSLRLSCAASGFTFSHYMGMNWVRQAPGKGLEWVSSIVPSGGWTQYADSVKGRFTISRDNSKNTLYLQMNSLRAEDTAVYYCAYRRTGIPRRDAFDIWGQGTMVTVSS
VL: B1 VL
B27: M202-A04 (Fab, V domains shown)
VH: B10 VH with F98Y, T101K, V103I, S108D, E110D
VL: B1 VL
B28: M198-A09 (Fab, V domains shown)
VH: B1 VH with D33F, I35S, Y52R, P53S, N57P, S59W
VL: B1 VL
B29: M195-B12 (Fab, V domains shown)
VH: B1 VH with I31K, D33W, I35Y, S50Y, Y52R, N57Q, S59Y
VL: B1 VL
B30: M196-H03 (Fab, V domains shown)
VH: B12 VH with M31R, Q33V, F35W, G54S, G56D, Q58H
VL: B1 VL
B31: M198-B09 (Fab, V domains shown)
VH: B1 VH with I31V, D33S, I35T, Y52G, P53S, N57S, S59T
VL: B1 VL
B32: M198-C09 (Fab, V domains shown)
VH: B1 VH with D33T, I35Y, Y52S, N57W, S59Y
VL: B1 VL
B33: M198-E11 (Fab, V domains shown)
VH: B1 VH with I31T, D33S, I35Y, N57L, S59W
VL: B1 VL
B34: M198-E02 (Fab, V domains shown)
VH: B1 VH with D33S, I35Y, S50Y, Y52R, S59K
VL: B1 VL
B35: M197-F03 (Fab, V domains shown)
VH: B1 VH with D33S, I35F, Y52G, N57V, S59H
VL: B1 VL
B36: M200-H07 (Fab, V domains shown)
VH: B10 VH with F98Y, D107N, S108A, E110D, I111N
VL: B1 VL
B37: M198-C06 (Fab, V domains shown)
VH: B1 VH with I31Q, D33F, I35H, S50Y, N57M, S59E
VL: B1 VL
B38: M198-F12 (Fab, V domains shown)
VH: B1 VH with D33T, I35M, Y52W, P53S, N57Q, S59K
VL: B1 VL
B39: M198-F04 (Fab, V domains shown)
VH: B1 VH with I35W, Y52R, N57I, S59K
VL: B1 VL
B40: M201-H06 (Fab, V domains shown)
VH: B10 VH with F98Y, S108A, E110D
VL: B1 VL

Molecular target: human plasma kallikrein (human, UniProt P03952 20-390; P03952 391-638)
Test: cell-based or functional assay

Sequence of human plasma kallikrein (P03952 20-390, chain 1 of 2): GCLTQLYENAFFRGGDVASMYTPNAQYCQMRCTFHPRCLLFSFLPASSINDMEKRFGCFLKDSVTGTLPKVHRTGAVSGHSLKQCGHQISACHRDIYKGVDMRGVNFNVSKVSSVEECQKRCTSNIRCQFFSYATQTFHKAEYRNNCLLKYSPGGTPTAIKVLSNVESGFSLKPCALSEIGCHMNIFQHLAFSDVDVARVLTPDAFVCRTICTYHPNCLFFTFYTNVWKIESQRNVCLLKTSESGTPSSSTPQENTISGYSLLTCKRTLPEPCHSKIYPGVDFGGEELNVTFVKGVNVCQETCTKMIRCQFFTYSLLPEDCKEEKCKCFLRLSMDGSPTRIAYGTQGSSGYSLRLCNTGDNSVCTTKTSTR
Sequence of human plasma kallikrein (P03952 391-638, chain 2 of 2): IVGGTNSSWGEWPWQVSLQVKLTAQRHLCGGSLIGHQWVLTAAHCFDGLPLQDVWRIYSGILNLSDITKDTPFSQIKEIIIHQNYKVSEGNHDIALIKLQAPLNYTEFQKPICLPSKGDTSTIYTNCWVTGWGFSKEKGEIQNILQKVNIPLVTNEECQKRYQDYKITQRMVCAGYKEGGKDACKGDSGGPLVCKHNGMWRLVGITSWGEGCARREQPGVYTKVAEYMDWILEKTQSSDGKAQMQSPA

Row | % inhibition at 10 nM [%] | Binder
1 | 95.3 | B1
2 | 84.2 | B2
3 | 88.9 | B3
4 | 92.3 | B4
5 | 83.2 | B5
6 | 93.7 | B6
7 | 75.1 | B7
8 | 84 | B8
9 | 90.8 | B9
10 | 88.3 | B10
11 | 89.1 | B11
12 | 84.2 | B12
13 | 93.1 | B13
14 | 94.1 | B14
15 | 93 | B15
16 | 81.9 | B16
17 | 85.8 | B17
18 | 83.9 | B18
19 | 80.7 | B19
20 | 94.9 | B20

Row | % inhibition at 10 nM [%] | Binder
21 | 92.6 | B21
22 | 91.8 | B22
23 | 92.9 | B23
24 | 91.5 | B24
25 | 86.1 | B25
26 | 93 | B26
27 | 81.2 | B27
28 | 77.3 | B28
29 | 87.7 | B29
30 | 83.9 | B30
31 | 93.5 | B31
32 | 75.4 | B32
33 | 92.5 | B33
34 | 90.3 | B34
35 | 90.7 | B35
36 | 85.4 | B36
37 | 76.5 | B37
38 | 74.6 | B38
39 | 92.9 | B39
40 | 84.6 | B40
